Assay results taken from patent US20030211523A1 (published 2003).

Assays:
[1] = biological target: VP16 activation domain alone, encoded by the empty prey vector PMVP (UniProt P06492); assay: cell-based or functional assay
[2] = biological target: VP16 transcription activation domain fused to aa 133-239 of c-Fos, encoded by PMVP_Fos (human) (UniProt P01100); assay: cell-based or functional assay
[3] = biological target: T1, JA domain (aa 1-223) of c-Jun fused with GFP, encoded by PMNGFP_JA (human, UniProt P05412 1-223; P42212 1-238 = GFP); assay: in vivo binding screening: membrane localization of the GFP fusion in HEK293T cells, fluorescence microscopy
T1 construct: Expressed in HEK293T cells

[4] = biological target: T2, JZ domain of c-Jun fused with GFP, encoded by PMNGFP_JZ (human, UniProt P05412 249-331; P42212 1-238 = GFP); assay: as above
T2 construct: Expressed in HEK293T cells; also called bait in the second screening

Sequence of VP16 activation domain alone, encoded by the empty prey vector PMVP (P06492 411-456 limits assumed): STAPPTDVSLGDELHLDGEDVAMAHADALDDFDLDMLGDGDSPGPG

Molecule: Gal4 DNA-binding domain fused to the JZ domain (aa 249-331) of c-Jun, encoded by PMBD_JZ (from UniProt P04386 1-147; P05412 249-331)
- events with GFP 30-fold or more above the background (FACS) (event in 10000) [1]: < 1

Molecule: Gal4 DNA-binding domain alone, encoded by the empty bait vector PMBD (from UniProt P04386 1-147)
- events with GFP 30-fold or more above the background (FACS) (event in 10000) [2]: < 1

B1: Fyn_Fos peptide: Fyn myristoylation (membrane-localizing) signal fused to c-Fos aa 133-239, expressed from the 3-primer PCR product (other, UniProt P06241 1-10, looked up)
chain: MGCVQCKDKESPEEEEKRRIRRERNKMAAAKCRNRRRELTDTLQAETDQLEDEKSALQTEIANLLKEKEKLEFILAAHRPACKIPDDLGFPEEMSVASLDLTGGLPEVATPESEEAF
modifications: myristoylation signal at the N-terminus (membrane-localizing signal)
notes: domain: myristoylation signal;range 133-239; Expressed in HEK293T cells
- binding result [3]: no binding

B2: Fyn_JA: Fyn membrane-localizing signal fused to the JA domain of c-Jun (other, UniProt P06241 1-10, looked up)
chain: MGCVQCKDKEMTAKMETTFYDDALNASFLPSESGPYGYSNPKILKQSMTLNLADPVGSLKPHLRAKNSDLLTSPDVGLLKLASPELERLIIQSSNGHITTTPTPTQFLCPKNVTDEQEGFAEGFVRALAELHSQNTLPSVTSAAQPVNGAGMVAPAVASVAGGSGSGGFSASLHSEPPVYANLSNFNPGALSSGGGAPSYGAAGLAFPAQPQQQQQPPHHLPQQMPVQHPRLQ
modifications: myristoylation signal at the N-terminus (membrane-localizing signal)
notes: domain: myristoylation signal;range 1-223
- binding result [4]: no binding
